Experimental data reported in the supplement of paper PMC10065799, “High-throughput profiling of sequence recognition by tyrosine kinases and SH2 domains using bacterial peptide display” (eLife, 2023).

target: FGFR3 (UniProt P22607); test: phosphorylation enrichment, bacterial display (enrichment ratio); higher = better substrate or ligand; peptides without Tyr show the background
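Note: 11-residue human phosphosite peptides and single-mutation variants displayed on the E. coli surface, counted by deep sequencing, each peptide's frequency after selection divided by its frequency in the unselected input library; frequency after pTyr selection over input frequency; kinase dosed for 20-30% of maximal phosphorylation in three min.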

Sequence of FGFR3 (P22607 whole entry, looked up): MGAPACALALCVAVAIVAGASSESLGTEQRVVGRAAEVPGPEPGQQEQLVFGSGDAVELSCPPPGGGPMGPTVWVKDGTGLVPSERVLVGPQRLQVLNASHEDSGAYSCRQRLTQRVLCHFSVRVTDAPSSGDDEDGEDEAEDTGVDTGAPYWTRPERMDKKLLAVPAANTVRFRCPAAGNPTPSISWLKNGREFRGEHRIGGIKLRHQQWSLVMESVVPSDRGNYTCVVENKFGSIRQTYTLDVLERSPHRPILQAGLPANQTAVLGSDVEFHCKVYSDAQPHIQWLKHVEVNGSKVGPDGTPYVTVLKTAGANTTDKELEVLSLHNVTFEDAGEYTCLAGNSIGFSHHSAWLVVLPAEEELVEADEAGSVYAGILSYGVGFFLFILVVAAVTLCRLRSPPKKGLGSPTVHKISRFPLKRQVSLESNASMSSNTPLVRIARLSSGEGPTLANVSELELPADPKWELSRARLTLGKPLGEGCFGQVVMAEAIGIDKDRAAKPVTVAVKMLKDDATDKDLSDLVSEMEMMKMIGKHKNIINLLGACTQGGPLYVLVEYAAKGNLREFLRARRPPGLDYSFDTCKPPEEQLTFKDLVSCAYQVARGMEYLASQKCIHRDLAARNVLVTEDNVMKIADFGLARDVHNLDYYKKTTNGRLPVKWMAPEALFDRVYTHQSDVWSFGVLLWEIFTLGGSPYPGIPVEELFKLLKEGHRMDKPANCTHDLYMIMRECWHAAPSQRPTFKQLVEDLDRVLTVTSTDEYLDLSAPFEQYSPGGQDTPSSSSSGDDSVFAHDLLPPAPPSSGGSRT

| Sequence | phosphorylation enrichment |
| --- | --- |
| AEVIWYKGDEV | 0.784 |
| EILLSDLRTGY [TGM1_Y365_Y365D] | 0.616 |
| QDEHGYISLCF [HSPB1_Y133_R136L] | 2.09 |
| RQGKDYIGAIP [KDR_Y951_V952I] | 0.547 |
| CGTPDYIAPEI [PRKCG_Y521] | 1.26 |
| LVTCSYLLGNS [LMNA_Y646_R644C] | 1.72 |
| QDTSRYTVCNL [BIRC3_Y245_S248C] | 0.469 |
| KELANYFKLHH [AK7_Y390_YF] | 0.83 |
| KDHPDYKYQPR [SOX10_Y171] | 0.481 |
| WAMLAYNRSKL [WWOX_Y293] | 0.611 |
| EKLIQYCQSKS [AKR1B1_Y199_G204S] | 0.642 |
| DMDATYRPMFS [JUP_Y701_YF] | 0.649 |
| WHYTFYNELRV [ACTC1_Y93_H90Y] | 1.03 |
| TQTPPYVKKHR [LARP1B_Y457_P462R] | 1.22 |
| NPQKSYLIRLF [WAS_Y83_F84L_YF] | 0.696 |
| KRGVSYILKLA [SERPINB1_Y84_A82V] | 0.676 |
| CPPKVYELMRA [ABL2_Y515] | 0.679 |

| Sequence | phosphorylation enrichment |
| --- | --- |
| FLTQHYDAKPQ [ANG_Y38] | 0.58 |
| EDKFMYFEFPQ [PTEN_Y240] | 7.33 |
| RVNSAYQEKVS [ACAN_Y100_D102E] | 0.423 |
| FTRNFYVRAVL [CYBA_Y88_YF] | 1.11 |
| MSLRSYGSREG [APC_Y96] | 0.414 |
| VDTFWYKFLKR [EPM2A_Y86] | 0.716 |
| FQLENCCNGGG [INS_Y108_Y108C_YF] | 0.523 |
| QSVEPYTKQQL [STAT3_Y640] | 0.558 |
| EYYENYIEELK [PARP4_Y218_F215Y] | 3.7 |
| SAASGYSDVTD [DTX2_Y425_T421A] | 0.569 |
| LRWREYQRQDY [PRKRIP1_Y90_R87W] | 0.585 |
| KILGRYFETGS [PAX2_Y72_YF] | 0.496 |
| FPLELYERVRI [PRKCG_Y312_M317I_YF] | 0.652 |
| MTFVFYRENLR [NLRP14_Y443_YF] | 0.927 |
| FQKNVYSEELR [LMNA_Y211_I210V] | 0.449 |
| IQKKYYRAILE [CHD7_Y1218] | 0.485 |

tested on: Fer (mouse); test: as above

| Sequence | phosphorylation enrichment |
| --- | --- |
| AEVIWYKGDEV | 0.491 |
| EILLSDLRTGY [TGM1_Y365_Y365D] | 0.362 |
| QDEHGYISLCF [HSPB1_Y133_R136L] | 1.08 |
| RQGKDYIGAIP [KDR_Y951_V952I] | 0.462 |
| CGTPDYIAPEI [PRKCG_Y521] | 0.484 |
| LVTCSYLLGNS [LMNA_Y646_R644C] | 0.959 |
| QDTSRYTVCNL [BIRC3_Y245_S248C] | 0.557 |
| KELANYFKLHH [AK7_Y390_YF] | 0.442 |
| KDHPDYKYQPR [SOX10_Y171] | 0.435 |
| WAMLAYNRSKL [WWOX_Y293] | 0.525 |
| EKLIQYCQSKS [AKR1B1_Y199_G204S] | 0.476 |
| DMDATYRPMFS [JUP_Y701_YF] | 0.465 |
| WHYTFYNELRV [ACTC1_Y93_H90Y] | 0.651 |
| TQTPPYVKKHR [LARP1B_Y457_P462R] | 0.684 |
| NPQKSYLIRLF [WAS_Y83_F84L_YF] | 0.448 |
| KRGVSYILKLA [SERPINB1_Y84_A82V] | 0.524 |
| CPPKVYELMRA [ABL2_Y515] | 6.41 |

| Sequence | phosphorylation enrichment |
| --- | --- |
| FLTQHYDAKPQ [ANG_Y38] | 0.658 |
| EDKFMYFEFPQ [PTEN_Y240] | 0.421 |
| RVNSAYQEKVS [ACAN_Y100_D102E] | 0.313 |
| FTRNFYVRAVL [CYBA_Y88_YF] | 0.689 |
| MSLRSYGSREG [APC_Y96] | 0.413 |
| VDTFWYKFLKR [EPM2A_Y86] | 0.525 |
| FQLENCCNGGG [INS_Y108_Y108C_YF] | 0.564 |
| QSVEPYTKQQL [STAT3_Y640] | 0.543 |
| EYYENYIEELK [PARP4_Y218_F215Y] | 0.706 |
| SAASGYSDVTD [DTX2_Y425_T421A] | 0.535 |
| LRWREYQRQDY [PRKRIP1_Y90_R87W] | 0.376 |
| KILGRYFETGS [PAX2_Y72_YF] | 0.464 |
| FPLELYERVRI [PRKCG_Y312_M317I_YF] | 3.28 |
| MTFVFYRENLR [NLRP14_Y443_YF] | 0.576 |
| FQKNVYSEELR [LMNA_Y211_I210V] | 0.417 |
| IQKKYYRAILE [CHD7_Y1218] | 0.384 |

target: Fes (UniProt P07332); test: as above
Sequence (P07332 whole entry, looked up): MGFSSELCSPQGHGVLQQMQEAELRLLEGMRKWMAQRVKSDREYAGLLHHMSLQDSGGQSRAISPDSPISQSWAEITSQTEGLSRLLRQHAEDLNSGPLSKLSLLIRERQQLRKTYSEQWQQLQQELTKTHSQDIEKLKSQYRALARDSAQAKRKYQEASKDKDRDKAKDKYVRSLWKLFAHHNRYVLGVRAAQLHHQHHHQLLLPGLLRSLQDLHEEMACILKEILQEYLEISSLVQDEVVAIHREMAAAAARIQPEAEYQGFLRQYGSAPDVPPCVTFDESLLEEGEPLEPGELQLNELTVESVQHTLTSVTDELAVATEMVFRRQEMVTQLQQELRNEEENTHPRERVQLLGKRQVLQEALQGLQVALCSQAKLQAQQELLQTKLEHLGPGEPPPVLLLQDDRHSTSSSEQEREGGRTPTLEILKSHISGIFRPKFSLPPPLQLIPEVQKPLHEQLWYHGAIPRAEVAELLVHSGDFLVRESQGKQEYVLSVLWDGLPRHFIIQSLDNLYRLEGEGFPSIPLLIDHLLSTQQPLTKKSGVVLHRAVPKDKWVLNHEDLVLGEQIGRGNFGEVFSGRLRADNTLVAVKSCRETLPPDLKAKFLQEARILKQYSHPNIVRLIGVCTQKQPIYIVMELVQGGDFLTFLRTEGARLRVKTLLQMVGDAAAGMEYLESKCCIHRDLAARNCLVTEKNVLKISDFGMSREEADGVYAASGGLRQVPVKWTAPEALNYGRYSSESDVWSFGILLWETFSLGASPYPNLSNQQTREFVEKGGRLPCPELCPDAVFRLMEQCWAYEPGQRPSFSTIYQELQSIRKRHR

| Sequence | phosphorylation enrichment |
| --- | --- |
| AEVIWYKGDEV | 1.41 |
| EILLSDLRTGY [TGM1_Y365_Y365D] | 0.845 |
| QDEHGYISLCF [HSPB1_Y133_R136L] | 3.71 |
| RQGKDYIGAIP [KDR_Y951_V952I] | 0.764 |
| CGTPDYIAPEI [PRKCG_Y521] | 1.14 |
| LVTCSYLLGNS [LMNA_Y646_R644C] | 3.29 |
| QDTSRYTVCNL [BIRC3_Y245_S248C] | 0.815 |
| KELANYFKLHH [AK7_Y390_YF] | 0.877 |
| KDHPDYKYQPR [SOX10_Y171] | 0.595 |
| WAMLAYNRSKL [WWOX_Y293] | 1.04 |
| EKLIQYCQSKS [AKR1B1_Y199_G204S] | 0.807 |
| DMDATYRPMFS [JUP_Y701_YF] | 0.99 |
| WHYTFYNELRV [ACTC1_Y93_H90Y] | 1.42 |
| TQTPPYVKKHR [LARP1B_Y457_P462R] | 1.23 |
| NPQKSYLIRLF [WAS_Y83_F84L_YF] | 0.957 |
| KRGVSYILKLA [SERPINB1_Y84_A82V] | 1.6 |
| CPPKVYELMRA [ABL2_Y515] | 1.04 |

| Sequence | phosphorylation enrichment |
| --- | --- |
| FLTQHYDAKPQ [ANG_Y38] | 0.741 |
| EDKFMYFEFPQ [PTEN_Y240] | 1.27 |
| RVNSAYQEKVS [ACAN_Y100_D102E] | 0.667 |
| FTRNFYVRAVL [CYBA_Y88_YF] | 1.58 |
| MSLRSYGSREG [APC_Y96] | 0.586 |
| VDTFWYKFLKR [EPM2A_Y86] | 1.18 |
| FQLENCCNGGG [INS_Y108_Y108C_YF] | 0.944 |
| QSVEPYTKQQL [STAT3_Y640] | 0.783 |
| EYYENYIEELK [PARP4_Y218_F215Y] | 1.29 |
| SAASGYSDVTD [DTX2_Y425_T421A] | 0.95 |
| LRWREYQRQDY [PRKRIP1_Y90_R87W] | 0.957 |
| KILGRYFETGS [PAX2_Y72_YF] | 0.656 |
| FPLELYERVRI [PRKCG_Y312_M317I_YF] | 1.29 |
| MTFVFYRENLR [NLRP14_Y443_YF] | 1.34 |
| FQKNVYSEELR [LMNA_Y211_I210V] | 0.727 |
| IQKKYYRAILE [CHD7_Y1218] | 0.761 |

target: Fyn (UniProt P06241); test: as above
Sequence (P06241 whole entry, looked up): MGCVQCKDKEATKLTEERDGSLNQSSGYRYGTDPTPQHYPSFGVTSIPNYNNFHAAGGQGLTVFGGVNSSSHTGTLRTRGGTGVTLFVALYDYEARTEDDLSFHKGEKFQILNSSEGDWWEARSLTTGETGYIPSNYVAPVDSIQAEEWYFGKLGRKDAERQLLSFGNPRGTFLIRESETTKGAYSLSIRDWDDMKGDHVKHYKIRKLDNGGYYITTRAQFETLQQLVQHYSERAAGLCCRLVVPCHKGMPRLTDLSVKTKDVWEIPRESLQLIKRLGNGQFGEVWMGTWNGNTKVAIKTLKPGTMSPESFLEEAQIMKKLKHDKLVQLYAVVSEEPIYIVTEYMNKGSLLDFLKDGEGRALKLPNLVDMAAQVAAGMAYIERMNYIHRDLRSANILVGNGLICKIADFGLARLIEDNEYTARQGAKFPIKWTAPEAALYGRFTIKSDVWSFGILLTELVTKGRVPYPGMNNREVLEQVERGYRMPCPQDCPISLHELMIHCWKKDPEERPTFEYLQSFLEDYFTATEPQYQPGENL

| Sequence | phosphorylation enrichment |
| --- | --- |
| AEVIWYKGDEV | 0.394 |
| EILLSDLRTGY [TGM1_Y365_Y365D] | 0.416 |
| QDEHGYISLCF [HSPB1_Y133_R136L] | 1.05 |
| RQGKDYIGAIP [KDR_Y951_V952I] | 0.715 |
| CGTPDYIAPEI [PRKCG_Y521] | 0.53 |
| LVTCSYLLGNS [LMNA_Y646_R644C] | 0.756 |
| QDTSRYTVCNL [BIRC3_Y245_S248C] | 0.546 |
| KELANYFKLHH [AK7_Y390_YF] | 0.567 |
| KDHPDYKYQPR [SOX10_Y171] | 0.458 |
| WAMLAYNRSKL [WWOX_Y293] | 0.347 |
| EKLIQYCQSKS [AKR1B1_Y199_G204S] | 0.475 |
| DMDATYRPMFS [JUP_Y701_YF] | 0.592 |
| WHYTFYNELRV [ACTC1_Y93_H90Y] | 0.461 |
| TQTPPYVKKHR [LARP1B_Y457_P462R] | 0.531 |
| NPQKSYLIRLF [WAS_Y83_F84L_YF] | 0.398 |
| KRGVSYILKLA [SERPINB1_Y84_A82V] | 0.426 |
| CPPKVYELMRA [ABL2_Y515] | 1.13 |

| Sequence | phosphorylation enrichment |
| --- | --- |
| FLTQHYDAKPQ [ANG_Y38] | 0.583 |
| EDKFMYFEFPQ [PTEN_Y240] | 1.32 |
| RVNSAYQEKVS [ACAN_Y100_D102E] | 0.378 |
| FTRNFYVRAVL [CYBA_Y88_YF] | 0.529 |
| MSLRSYGSREG [APC_Y96] | 0.398 |
| VDTFWYKFLKR [EPM2A_Y86] | 0.406 |
| FQLENCCNGGG [INS_Y108_Y108C_YF] | 0.445 |
| QSVEPYTKQQL [STAT3_Y640] | 0.536 |
| EYYENYIEELK [PARP4_Y218_F215Y] | 0.648 |
| SAASGYSDVTD [DTX2_Y425_T421A] | 0.232 |
| LRWREYQRQDY [PRKRIP1_Y90_R87W] | 0.574 |
| KILGRYFETGS [PAX2_Y72_YF] | 0.408 |
| FPLELYERVRI [PRKCG_Y312_M317I_YF] | 0.48 |
| MTFVFYRENLR [NLRP14_Y443_YF] | 0.48 |
| FQKNVYSEELR [LMNA_Y211_I210V] | 0.613 |
| IQKKYYRAILE [CHD7_Y1218] | 0.407 |
